Reference: the supplement of paper PMC7877785
± gives the uncertainty stated by the source.

Assay: self-splicing fitness, log relative to wild type (ln ratio); higher = more splicing; Tetrahymena group I intron in knt gene, E. coli kanamycin selection, DiMSum; sequences stand for … in CUCUCU…GGAGGGAAAAGUUAUCAGGCAUGCACCUGGUAGCUAGUCUUUAAACCAAUAGAUUGCAUCGGUUUAAAAGGCAAGACCGUCAAAUUGCGGGAAAGGGGUCAACAGCCGUUCAGUACCAAGUCUCAGGGGAAACUUUGAGAUGGCCUUGCAAAGGGUAUGGUAAUAAGCUGACGGACAUGGUCCUAACCACGCAGCCAAGUCCUAAGUCAACAGAUCUUCUGUUGAUAUGGAUGCAGUUCACAGACUAAAUGUCGGUCGGGGAAGAUGUAUUCUUCUCAUAAGAUAUAGUCGGACCUCUCCUUAAUGGGAGCUAGCGGAUGAAGUGAUGCAACACUGGAGCCGCUGGGAACUAAUUUGUAUGCGAAAGUAUAUUGAUUAGUUUUGGAGUACUCGUGGUCG
How it was run: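 Pooled colonies went to amplicon sequencing on an Illumina HiSeq 2500 after six replicate transformations. The plates were LB agar with 100 μg/mL carbenicillin, 50 μM IPTG and 0.2% rhamnose, with or without 25 μg/mL kanamycin, incubated overnight at 37°C or 30°C. The E. coli BL21(DE3) library had all eight P1ex-region intron nucleotides randomised, the intron placed in the knt kanamycin-resistance gene on pET-22b(+). DiMSum fitness is the error-weighted combination of replicate fold changes, kanamycin against none, normalised to wild type.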

Sequence	self-splicing fitness (ln) (30 °C)	self-splicing fitness (ln) (37 °C)
GAAUAGCAAUAUUACGAGCA	-1.94 ± 0.23	-0.431 ± 0.14
ACGCAGCAAUAUUACGACUU	-0.543 ± 0.077	0.0674 ± 0.09
UGGGAGCAAUAUUACGCCGC	-2.27 ± 0.47	
GAAUAGCAAUAUUACGGGCU	-2.85 ± 0.16	-1.19 ± 0.13
CCCAAGCAAUAUUACGGCCC	-2.39 ± 0.47	
CCUGAGCAAUAUUACGAUCC	-4.29 ± 0.47	-2.96 ± 0.48
GGGUAGCAAUAUUACGUCUA	-0.297 ± 0.15	0.226 ± 0.16
CAGAAGCAAUAUUACGAGUG	-1.63 ± 0.067	-0.988 ± 0.091
GUCCAGCAAUAUUACGCUUC	-1.38 ± 0.083	-0.138 ± 0.11
CUAGAGCAAUAUUACGAAAA	-1.94 ± 0.44	
UCUUAGCAAUAUUACGCUUC	-4.09 ± 0.35	-2.41 ± 0.19
UAUAAGCAAUAUUACGACGU	-1.12 ± 0.11	-0.116 ± 0.11
CGAUAGCAAUAUUACGAAGA		-2.21 ± 0.4
GCCAAGCAAUAUUACGUGGA	-0.758 ± 0.049	-0.303 ± 0.052
UACUAGCAAUAUUACGUAGC	-2.83 ± 0.17	-2.19 ± 0.27
CAGAAGCAAUAUUACGCAUA	-3.68 ± 0.24	-2.02 ± 0.18
UGCCAGCAAUAUUACGUUUA	-2.56 ± 0.086	-1.51 ± 0.072
CGAUAGCAAUAUUACGUACC		-1.56 ± 0.44
CUGUAGCAAUAUUACGCAUA	-2.83 ± 0.47	-2.43 ± 0.41
GAUCAGCAAUAUUACGGGCG	-0.25 ± 0.095	-0.511 ± 0.13
GACUAGCAAUAUUACGAGAG	-3.75 ± 0.18	-2.28 ± 0.14
GUGAAGCAAUAUUACGCAAG	-0.985 ± 0.09	0.0285 ± 0.1
CAACAGCAAUAUUACGAUUA	-0.522 ± 0.082	-0.185 ± 0.082
ACUUAGCAAUAUUACGGCCC	-1.01 ± 0.34	-0.451 ± 0.29
CGUCAGCAAUAUUACGUUUC	-3 ± 0.14	-3.06 ± 0.21

Sequence	self-splicing fitness (ln) (30 °C)	self-splicing fitness (ln) (37 °C)
ACGGAGCAAUAUUACGAAUG	-3.88 ± 0.43	-0.307 ± 0.27
GUUGAGCAAUAUUACGGAAU	-3.08 ± 0.31	
UGUCAGCAAUAUUACGGGGC	-2.84 ± 0.16	-3.02 ± 0.26
UUCGAGCAAUAUUACGGGGA	-1.7 ± 0.18	-0.829 ± 0.19
UAGUAGCAAUAUUACGAGUU	-3.96 ± 0.28	-2.75 ± 0.23
AUAGAGCAAUAUUACGUACU	-0.65 ± 0.12	0.124 ± 0.14
AUGCAGCAAUAUUACGUGAA	-2.44 ± 0.12	-0.683 ± 0.13
CUUGAGCAAUAUUACGGGUC	-3.49 ± 0.19	-2.97 ± 0.25
UUACAGCAAUAUUACGAAUG	-1.46 ± 0.094	-0.991 ± 0.14
UCUCAGCAAUAUUACGUAGU	-1.71 ± 0.1	-0.822 ± 0.11
GUGGAGCAAUAUUACGAUCU	-2.68 ± 0.15	-2.6 ± 0.22
UCUGAGCAAUAUUACGCCUA		-0.697 ± 0.44
AAAUAGCAAUAUUACGCGUG	-1.11 ± 0.078	-0.804 ± 0.11
UAUUAGCAAUAUUACGCUAG	-2.36 ± 0.19	-0.845 ± 0.15
GCGUAGCAAUAUUACGGGUG	-1.55 ± 0.08	-1.46 ± 0.091
CACAAGCAAUAUUACGGCUA	-2.02 ± 0.12	-1.26 ± 0.11
AUUGAGCAAUAUUACGGAUU	-2.96 ± 0.23	-1.64 ± 0.23
UUACAGCAAUAUUACGCUAU	-3.74 ± 0.25	-2.33 ± 0.21
GUACAGCAAUAUUACGAUUA	-0.7 ± 0.095	-0.556 ± 0.1
UGGUAGCAAUAUUACGAGCA	-0.502 ± 0.15	-0.131 ± 0.21
UGCUAGCAAUAUUACGUAAU	-2.42 ± 0.11	-1.34 ± 0.13
AUCGAGCAAUAUUACGUGAC	-3.54 ± 0.26	-2.91 ± 0.29
AAGGAGCAAUAUUACGCAGU	-3.65 ± 0.43	-1.38 ± 0.19
GGGUAGCAAUAUUACGGGAU	-3.17 ± 0.22	-2.04 ± 0.23
CCUCAGCAAUAUUACGAUUG	-1.31 ± 0.068	-0.558 ± 0.084
